Data taken from patent publication US20210032351A1 (XDCEXPLORER SHANGHAI, published 2021).

Columns and labels:
[1] = molecular target: T1, human EGFRvIII protein on the surface of U87MG-hEGFRvIII cells (human, UniProt P00533 25-1210); assay: cell-based or functional assay
[2] = molecular target: T2, human EGFRvIII-hFc protein (human, UniProt P00533 25-645); assay: ELISA, coated EGFRvIII-hFc, antibody 0.1 nM
T2 construct: extracellular domain; made in HEK293 cells, purified on protein A; also called immunogen A; hFc-tagged EGFRvIII protein; not shown: human IgG Fc fragment (hFc) of the pCpC vector
Description: (§1) The purified immunogen A (EGFRvIII-hFc) obtained in example 1 (for the preparation method, see step (I) in example 1) is diluted with PBS to a final concentration of 1.0 μg/mL, and then added to a 96-well ELISA plate at 100 μl/well. The plate is sealed with a plastic film and incubated at 4° C. overnight. The next day, the plate is washed twice with a plate washing solution [PBS+0.01% (v/v) Tween20], and added with a blocking solution [PBS+0.01% (v/v) Tween20+1% (w/w) BSA] for blocking 2 hours at room temperature. The blocking solution is discarded, and the purified EGFRvIII antibody obtained in example 2 is added at 100 μl/well. The plate is incubated for 2 hours at 37° C., and then washed 3 times with the plate washing solution [PBS+0.01% (v/v) Tween20]. The plate is added with an HRP (horseradish peroxidase) labeled secondary antibody (purchased from Sigma), incubated at 37° C. for 2 hours, and then washed 3 times with the plate washing solution [PBS+0.01% (v/v) Tween20]. The plate is added with 100 μl of TMB substrate/well, incubated for 30 minutes at room temperature, and then added with 100 μl of stopping solution (1.0N HCl)/well. A450 nm value is read using an ELISA plate reader (SpectraMax 384plus, purchased from Molecular Device), and the results are shown in FIG. 6 and table 10.

[3] = molecular target: T2, human EGFRvIII-hFc protein; assay: ELISA, coated EGFRvIII-hFc, antibody 100 nM
Description: as §1

[4] = molecular target: T2, human EGFRvIII-hFc protein; assay: ELISA, coated EGFRvIII-hFc, antibody 0.001 nM
Description: as §1

[5] = molecular target: T2, human EGFRvIII-hFc protein; assay: ELISA, coated EGFRvIII-hFc, antibody 1 nM
Description: as §1

[6] = molecular target: T2, human EGFRvIII-hFc protein; assay: ELISA, coated EGFRvIII-hFc, antibody 10 nM
Description: as §1

[7] = molecular target: T2, human EGFRvIII-hFc protein; assay: ELISA, coated EGFRvIII-hFc, antibody 0.0001 nM
Description: as §1

[8] = molecular target: T2, human EGFRvIII-hFc protein; assay: ELISA, coated EGFRvIII-hFc, antibody 0.01 nM
Description: as §1

[9] = molecular target: T1, human EGFRvIII protein on the surface …; assay: FACS on U87MG-hEGFRvIII cells
Description: The cells are washed twice with the HBSS buffer and are counted, and then the cells are diluted with the HBSS buffer to 2×10⁶ cells/ml, added with 1% goat serum blocking solution, with the percentage being the mass percentage, and incubated on ice for 30 minutes, and then centrifugally washed twice with the HBSS buffer. The collected cells are suspended to 2×10⁶ cells/mL with an FACS buffer (HBSS+1% BSA, with the percentage being the mass percentage), added to a 96-well FACS reaction plate at 100 μL/well, then added with 100 μL/well of the purified EGFRvIII antibody (samples to be tested) obtained in example 2, and incubated on ice for 2 hours. The plate is centrifugally washed twice with the FACS buffer, added with 100 μL/well of a fluorescence (Alexa 488) labeled secondary antibody (purchased from Invitrogen), and then incubated on ice for 1 hour. The plate is centrifugally washed 3 times with the FACS buffer, added with 100 μL/well of a fixing solution [4% (v/v) paraformaldehyde] for suspending the cells, and centrifugally washed twice with the FACS buffer after 10 minutes. The cells are suspended in 100 μL of the FACS buffer, and the results are detected and analyzed by FACS (FACS Calibur, purchased from BD). Data analysis is performed by using the software (CellQuest) to obtain the mean fluorescence intensity (MFI) of the cells. Data is further analyzed by using the software (GraphPad Prism5) to perform data fitting and calculate EC50. […] A431 cells (human epidermal cell cancer cell lines) have a large amount of wild-type EGFR protein expressed on the surface thereof. […] U87MG cells (human glioma cell lines) have a small amount of wild-type EGFR protein expressed on the surface thereof, while HEB cells (human glioma cell lines) have a high level of wild-type EGFR protein expression on the surface thereof.

B1: Murine anti-49G12-MMAF (antibody, V domains shown)
VH: EVQLLQSGAELVKPGASVKLSCTASGFNIKDYYMHWVKQRTEQGLEWIGRIDPEDGETKYAPKFQGKATMTADTSSNTAYLQLSSLTSEDTAVYYCASSAYYGRNYWGQGTTLTVSS
VL: QIVLTQSPAIMSASPGEKVTLTCSASSSLSSSYLYWYQQKPGSSPKLWIYSTSNLASGVPARFSGSGSGTSYSLTISSMEAEDAASYFCHQWSSYPYTFGGGTKLEIK
- IC50, cell killing of U87MG-hEGFRvIII cells (CellTiter-Glo) [1]: 20 pM

B2: Murine anti-46C4-MMAF (antibody, V domains shown)
VH: EVHLQQSVAELVRPGASVKLSCTASGFNIKNTYMHWVKQRPEQGLEWIGRIDPANGNTKYAPKFQGKATITADTSSNTAYLQLSSLTSEDTAIYYCASDFDYWGQGTTLTVSS
VL: DVLMTQTPLSLPVSLGDQVSISCRSSQSIVNSNGNTHLEWYLQKPGQSPKVLIYKVSKRFSGVPDRFSGSGSGTDFTLKISRVEAEDLGVYYCFQGSHVPYTFGGGTKLEIK
- IC50, cell killing of U87MG-hEGFRvIII cells (CellTiter-Glo) [1]: 150 pM

B3: Murine anti-7E5-MMAF (antibody, V domains shown)
VH: EIQLQQSGPELVKPGASVKVSCKASGYSFTDYNMYWVKQSHGKSLEWIGYVDPSNGGTNYNQKFKGKATLTVDKSSSTAFMHLNSLTSEDSAVYYCARGFFDYWGQGTTLTVSS
VL: DIVMTQSPSSLTVTAGEKVTMSCKSSQSLLNSGNQKNYLTWYQQKPGQPPKLLIYWASNRESGVPDRFTGSGSGKDFTLTISSVQAEDLAVYYCQNDYRYPVTFGAGTKLELK
- IC50, cell killing of U87MG-hEGFRvIII cells (CellTiter-Glo) [1]: 20 pM

B4: Murine anti-56F10-MMAF (antibody, V domains shown)
VH: EVQLQQSGAELVKPGASVKLSCTASGFNIKDFYMHWVKQRTEQGLEWIGRIDPEDGETKYAPKFQGKATITADTSSNTAYLQLSSLTSEDTAVYYCGCRTGGFAYWGQGTLVTVSA
VL: QIVLTQSPAIMSASPGEKVTMTCSASSSVSYLYWYQQKPGSSPSLLIYDTSNLASGVPVRFSGSGSGTSYSLTISRMEAEDAATYYCQQWSRNPWTFGGGTKLEIK
- IC50, cell killing of U87MG-hEGFRvIII cells (CellTiter-Glo) [1]: 150 pM

B5: Murine anti-59G3-MMAF (antibody, V domains shown)
VH: DVQLQESGPGLVKPSQSLSLTCSVTGYSITSGYYWHWIRQFPENKLEWMGYISYDGSNIYNPSLKNRISITRDTSKNQFFLKLNSVTTEDTATYYCAINSDYALDYWGQGTSVTVSS
VL: QIVLTQSPAIMSASPGEKVTMTCSASSSVSYMYWYQQKPGSSPRLLIYDTSNLASGVPVRFSGSGSGTSYSLTISRMEAEDAATYYCQQWSSYSLTFGAGTKLELK
- IC50, cell killing of U87MG-hEGFRvIII cells (CellTiter-Glo) [1]: 60 pM

B6: Murine anti-63A10-MMAF (antibody, V domains shown)
VH: QVQLQQSGAELARPGASVKMSCKASGYTFISFTMHWVKQRPGQGLEWIGYINPNSGYTKYNQKFKDKATLTAGQSSSTAYMQLSSLTSEDSAVYYCTRGGGRGFAYWGQGTLVTVSA
VL: DILMTQSPSSMSVSLGDTVTITCHASQDINSNIGWLQQKPGKSFKALIYHGTNLEDGVPSRFSGSGSGADYSLTISSLESEDFADYYCVQYAQFPFTFGSGTKLEIK
- IC50, cell killing of U87MG-hEGFRvIII cells (CellTiter-Glo) [1]: 10 pM

B7: Murine anti-64F1 (antibody, V domains shown)
VH: QVQLQQSGAELARPGASVKMSCKASGYTFSSYTMHWAKQRPGQGLEWIGYINPSSGYTKYNQKFKDKATLTADKSSSTAYMQLSSLTSEDSIVYYCARGGGRGFAYWGQGTLVTVSA
VL: QIVLTQSPAIMSASPGERVTMTCSASSSVSYMYWYQQKPGSSPRLLIYDTSNLASGVPVRFSGSGSGTSYSLTISRVEAEDAATYYCQQWSSYSLTFGAGTKLELK
notes: murine hybridoma antibody; also called 64F1F8
- OD450 nm [2]: 1
- OD450 nm [3]: 3.73
- OD450 nm [4]: 0.09
- OD450 nm [5]: 3.51
- OD450 nm [6]: 3.76
- OD450 nm [7]: 0.08
- OD450 nm [8]: 0.16

B8: Murine anti-64F1-MMAF (antibody, V domains shown)
VH: QVQLQQSGAELARPGASVKMSCKASGYTFSSYTMHWAKQRPGQGLEWIGYINPSSGYTKYNQKFKDKATLTADKSSSTAYMQLSSLTSEDSIVYYCARGGGRGFAYWGQGTLVTVSA
VL: QIVLTQSPAIMSASPGERVTMTCSASSSVSYMYWYQQKPGSSPRLLIYDTSNLASGVPVRFSGSGSGTSYSLTISRVEAEDAATYYCQQWSSYSLTFGAGTKLELK
- IC50, cell killing of U87MG-hEGFRvIII cells (CellTiter-Glo) [1]: 10 pM

B9: Murine anti-53D8-MMAF (antibody, V domains shown)
VH: QVQLQQSGAELARPGASVKMSCKASGYTFTSYTMHWVKQRPGQGLEWIGYINPSSGYTKYNQIFKDKATLTADKSSSTAYMQLSSLTSEDSAVYYCTRGGGRGFAYWGQGTLVTVSA
VL: DILMTQSPSSMSVSLGDTVSITCHASQDINSNIGWLQQKPGKSFKGLIYHGTNLEDGVPSRFSGSGSGADYSLTISSLESEDFADYYCVQYAQFPFTFGSGTKLEIK
- IC50, cell killing of U87MG-hEGFRvIII cells (CellTiter-Glo) [1]: 40 pM

B10: Murine anti-43H6-MMAF (antibody, V domains shown)
VH: INAEYAGGPGLVKPSQSLSLTCTVTDYSITSDYAWNWIRQFPGNKLEWMGYISYSGNTNYNPSLKSRISITRDTSKNQFFLQLNSVTTEDTATYYCARLGRGFAYWGQGTLVTVSA
VL: DILMTQSPSSMSVSLGDTVSITCHASQDINSNIGWLQQKPGTSFKGLIYHGRNLEDGVPSRFSGSGSGEDYSLTISSLESEDFADYYCVQYAHFPPTFGAGTKLELK
- IC50, cell killing of U87MG-hEGFRvIII cells (CellTiter-Glo) [1]: 10 pM

B11: Murine anti-63A10 (antibody, V domains shown)
VH: QVQLQQSGAELARPGASVKMSCKASGYTFISFTMHWVKQRPGQGLEWIGYINPNSGYTKYNQKFKDKATLTAGQSSSTAYMQLSSLTSEDSAVYYCTRGGGRGFAYWGQGTLVTVSA
VL: DILMTQSPSSMSVSLGDTVTITCHASQDINSNIGWLQQKPGKSFKALIYHGTNLEDGVPSRFSGSGSGADYSLTISSLESEDFADYYCVQYAQFPFTFGSGTKLEIK
notes: murine hybridoma antibody; also called 63A10A7
- OD450 nm [2]: 0.8
- OD450 nm [3]: 3.71
- OD450 nm [4]: 0.09
- OD450 nm [5]: 3.42
- OD450 nm [6]: 3.76
- OD450 nm [7]: 0.08
- OD450 nm [8]: 0.17

B12: Murine anti-43H6 (antibody, V domains shown)
VH: INAEYAGGPGLVKPSQSLSLTCTVTDYSITSDYAWNWIRQFPGNKLEWMGYISYSGNTNYNPSLKSRISITRDTSKNQFFLQLNSVTTEDTATYYCARLGRGFAYWGQGTLVTVSA
VL: DILMTQSPSSMSVSLGDTVSITCHASQDINSNIGWLQQKPGTSFKGLIYHGRNLEDGVPSRFSGSGSGEDYSLTISSLESEDFADYYCVQYAHFPPTFGAGTKLELK
notes: Mouse hybridoma antibody; also called 43H6A1
- EC50 [9]: 4000 pM

B13: Murine anti-75G7-MMAF (antibody, V domains shown)
VH: EVQLQQSGPELVKPGASVKIPCKASGYTFTDYNMDWVKQSHGKSLEWIGDINPNNGDTIYNQKFKGKATLTVDKSSSTAYMELRSLTSEDTAVYYCARGDYDGYYPVYYAMDYWGQGTSVTVSS
VL: ENVLTQSPAIMSASPGEKVTMTCRASSSVSSSYLHWYQQKSGASPKLWIFSTSNLAAGVPARFSGSGSGTSYSLTVSSVEAEDAATYYCQQYSGYPLTFGAGTKLELK
- IC50, cell killing of U87MG-hEGFRvIII cells (CellTiter-Glo) [1]: 270 pM
